Data: paper PMC6748615
Read-outs that look alike come from different tables or passages of the source.

B1: rat FcRn (receptor)
chain 1: AEPRLPLMYHLAAVSDLSTGLPSFWATGWLGAQQYLTYNNLRQEADPCGAWIWENQVSWYWEKETTDLKSKEQLFLEAIRTLENQINGTFTLQGLLGCELAPDNSSLPTAVFALNGEEFMRFNPRTGNWSGEWPETDIVGNLWMKQPEAARKESEFLLTSCPERLLGHLERGRQNLEWKEPPSMRLKARPGNSGSSVLTCAAFSFYPPELKFRFLRNGLASGSGNCSTGPNGDGSFHAWSLLEVKRGDEHHYQCQVEHEGLAQPLTVDLDSPARSS
chain 2: IQKTPQIQVYSRHPPENGKPNFLNCYVSQFHPPQIEIELLKNGKKIPNIEMSDLSFSKDWSFYILAHTEFTPTETDVYACRVKHVTLKEPKTVTWDRDM

Experiments:
[1] = target: biotinylated human FcRn (human) (UniProt P55899); experiment: FcRn affinity chromatography
rat FcRn (rat) = rat FcRn (rat) (UniProt P13599); experiment: SPR
[2] = target: biotinylated cynomolgus FcRn (cynomolgus) (UniProt Q8SPV9)
[3] = target: biotinylated human FcRn (human) (UniProt P55899)
[4] = target: Human CD16a (FcγRIIIa-V158) (human) (UniProt P08637); experiment: SPR
[5] = target: biotinylated human FcRn (human) (UniProt P55899); experiment: SPR
[6] = target: biotinylated human FcRn (human) (UniProt P55899); experiment: SPR; remark: listed apart in the source
mAb1 M252Y = experiment: BLI
mAb1 N434F = experiment: BLI
mAb1 N434Y = experiment: BLI

Chain of UniProt P55899 (P55899 24-297, chain 1 of 2): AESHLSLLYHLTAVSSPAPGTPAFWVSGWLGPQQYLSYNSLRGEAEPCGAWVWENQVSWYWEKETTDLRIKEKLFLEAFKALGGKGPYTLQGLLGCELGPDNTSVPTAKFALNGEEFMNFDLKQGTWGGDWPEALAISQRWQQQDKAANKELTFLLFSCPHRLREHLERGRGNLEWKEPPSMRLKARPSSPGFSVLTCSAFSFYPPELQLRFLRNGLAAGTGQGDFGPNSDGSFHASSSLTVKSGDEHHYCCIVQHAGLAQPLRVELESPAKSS
Chain of UniProt P55899 (P61769 21-119, chain 2 of 2, further chain): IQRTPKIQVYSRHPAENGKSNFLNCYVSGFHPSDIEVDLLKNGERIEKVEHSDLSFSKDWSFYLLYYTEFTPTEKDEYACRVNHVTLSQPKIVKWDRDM
Chain of UniProt Q8SPV9 (Q8SPV9 24-297, chain 1 of 2): as the sequence (P55899 24-297, chain 1 of 2) above, with N39D, E44Q, G99S, S189G, S190N, L217M, S269T counted along it
Chain of UniProt Q8SPV9 (Q8SPW0 21-119, chain 2 of 2, further chain): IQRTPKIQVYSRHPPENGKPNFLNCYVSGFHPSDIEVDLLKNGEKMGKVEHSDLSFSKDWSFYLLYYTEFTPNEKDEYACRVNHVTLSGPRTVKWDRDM

Molecule | elution pH [1] | Kd (rat FcRn (rat)) | Kd [5] | koff [5] | kon [5] | steady state RU, pH 7.4 [5] | steady state RU, pH 7.4 (rat FcRn (rat)) | further results
mAb1 K288N (antibody) | 7.39 pH | 190 nM | – | – | – | – | – | –
mAb2 DW (T256D/T307W) (antibody) | – | – | – | – | – | – | – | plasma elimination half-life t1/2 in cynomolgus monkeys, 2.5 mg/kg i.v. [2]: 20.4 days; plasma elimination half-life t1/2 in hFcRn Tg32 transgenic mice, 2.5 mg/kg i.v. [3]: 20.1 days
mAb1 T256E (antibody) | 7.63 pH | 113 nM | – | – | – | – | – | –
mAb1 YDTN (YD: M252Y/T256D) (antibody) | 8.29 pH | 5.86 nM | 93.6 nM | 0.593 s⁻¹ | 63300 M⁻¹ s⁻¹ | 9.7 RU | 56 RU | steady state RU [4]: 67.7 RU
mAb1 MDWN (DW: T256D/T307W) (antibody) | 7.92 pH | 8.24 nM | 169 nM | 0.892 s⁻¹ | 52900 M⁻¹ s⁻¹ | 12.2 RU | 42.1 RU | steady state RU [4]: 126 RU
mAb1 N434F (antibody) | – | 26 nM | 165 nM | – | – | 20.1 RU | 54.9 RU | –
mAb1 WT (model IgG1) (antibody) | 7.37 pH | 207 nM | 2380 nM | 0.386 s⁻¹ | 162000 M⁻¹ s⁻¹ | – | – | affinity fold change vs WT [4]: 1 fold
mAb1 M252Y (antibody) | 7.88 pH | 25 nM | 3100 nM | – | – | – | – | –
mAb1 MDQN (DQ: T256D/T307Q) (antibody) | 7.92 pH | 9.54 nM | 232 nM | 0.872 s⁻¹ | 37600 M⁻¹ s⁻¹ | 10.7 RU | 39.1 RU | steady state RU [4]: 103 RU
mAb1 N434Y (antibody) | 8.46 pH | 23 nM | 137 nM | 0.052 s⁻¹ | 359000 M⁻¹ s⁻¹ | 22.6 RU | 47 RU | affinity fold change vs WT [4]: 1.41 fold
mAb1 T307W (antibody) | 7.75 pH | 111 nM | 8740 nM | – | – | – | – | –
mAb1 YDQN (M252Y/T256D/T307Q) (antibody) | 8.51 pH | 5.12 nM | 115 nM | 0.282 s⁻¹ | 24600 M⁻¹ s⁻¹ | 19.8 RU | 65.2 RU | steady state RU [4]: 59.2 RU
mAb1 YTE (M252Y/S254T/T256E) (antibody) | 8.14 pH | – | 342 nM | – | 143000 M⁻¹ s⁻¹ | 13.2 RU | 53.9 RU | steady state RU, pH 7.4 [6]: 13.1 RU; affinity fold change vs WT [4]: 0.52 fold
mAb1 AAA (T307A/E380A/N434A) (antibody) | 7.94 pH | 77 nM | 1780 nM | 0.144 s⁻¹ | 83700 M⁻¹ s⁻¹ | 13.9 RU | 23.6 RU | affinity fold change vs WT [4]: 0.89 fold
mAb1 YTWN (M252Y/T307W) (antibody) | 8.14 pH | 5.21 nM | 118 nM | – | 48300 M⁻¹ s⁻¹ | 15.9 RU | 66.1 RU | steady state RU [4]: 67.5 RU
mAb1 E380C (antibody) | 7.18 pH | 6310 nM | – | – | – | – | – | –
mAb2 YD (M252Y/T256D) (antibody) | – | – | – | – | – | – | – | plasma elimination half-life t1/2 in cynomolgus monkeys, 2.5 mg/kg i.v. [2]: 23.5 days; plasma elimination half-life t1/2 in hFcRn Tg32 transgenic mice, 2.5 mg/kg i.v. [3]: 17.5 days

Molecule | elution pH [1] | Kd (rat FcRn (rat)) | Kd [5] | koff [5] | kon [5] | steady state RU, pH 7.4 [5] | steady state RU, pH 7.4 (rat FcRn (rat)) | further results
mAb1 T307E (antibody) | 7.58 pH | 141 nM | 8130 nM | 0.298 s⁻¹ | 43700 M⁻¹ s⁻¹ | – | – | –
mAb1 YETN (M252Y/T256E) (antibody) | 7.83 pH | 8.43 nM | 128 nM | 0.757 s⁻¹ | 59200 M⁻¹ s⁻¹ | 9.8 RU | 55.1 RU | steady state RU [4]: 58.5 RU
mAb1 Y436N (antibody) | 7.22 pH | 233 nM | – | – | – | – | – | –
mAb1 Y436W (antibody) | 7.39 pH | 1140 nM | – | – | – | – | – | –
mAb1 T307A (antibody) | 7.61 pH | 132 nM | – | – | – | – | – | –
mAb1 T307Q (antibody) | 7.86 pH | 58 nM | 5720 nM | 0.215 s⁻¹ | 39600 M⁻¹ s⁻¹ | – | – | affinity fold change vs WT [4]: 1 fold
mAb2 DQ (T256D/T307Q) (antibody) | – | – | – | – | – | – | – | plasma elimination half-life t1/2 in hFcRn Tg32 transgenic mice, 2.5 mg/kg i.v. [3]: 24.5 days
mAb1 T256D (antibody) | 7.82 pH | 86 nM | 6700 nM | – | – | – | – | –
mAb1 Y436H (antibody) | 7.33 pH | 131 nM | – | – | – | – | – | –
mAb1 T307F (antibody) | 7.61 pH | 131 nM | – | – | – | – | – | –
mAb1 LS (M428L/N434S) (antibody) | 8.29 pH | 74 nM | 272 nM | 0.052 s⁻¹ | 193000 M⁻¹ s⁻¹ | 18.3 RU | 24.8 RU | steady state RU, pH 7.4 [6]: 18.5 RU; affinity fold change vs WT [4]: 1.04 fold
mAb1 N434P (antibody) | 7.56 pH | 194 nM | – | – | – | – | – | –
mAb1 T307M (antibody) | 7.4 pH | 279 nM | – | – | – | – | – | –
mAb1 K288D (antibody) | 7.33 pH | 149 nM | – | – | – | – | – | –
mAb1 YEQN (M252Y/T256E/T307Q) (antibody) | 8.12 pH | 7.76 nM | 218 nM | 0.405 s⁻¹ | 18500 M⁻¹ s⁻¹ | 15.2 RU | 61.8 RU | steady state RU [4]: 43.5 RU
B1 | – | – | – | – | – | – | – | fold slower off rate than WT (mAb1 M252Y): > 1.8 fold; fold slower off rate than WT (mAb1 N434F): > 1.8 fold; fold slower off rate than WT (mAb1 N434Y): > 1.8 fold
